Here are results for seven molecules from patent US20250034212A1, “PEPTIDE” (PEPTIDREAM INC., priority 2021, published 2025).

Starred links: 1 amine or outer side, 2 acyl side, 3 side chain; linkers in the order of their positions; H or OH if unused. Positions of bridges follow the written chain, without caps; N, C: chain ends. Non-standard residues stand in square brackets, D forms with d. No end group written: not given here. KCOmeglumine = N6-(methyl-((2S,3R,4R,5R)-2,3,4,5,6-pentahydroxyhexyl)carbamoyl)-L-lysine, CN(C[C@H](O)[C@@H](O)[C@H](O)[C@H](O)CO)C(=O)NCCCC[C@H](N[*:1])C(=O)[*:2]; KCOpipzaa = N6-(4-(carboxymethyl)piperazine-1-carbonyl)-L-lysine, O=C(NCCCC[C@H](N[*:1])C(=O)[*:2])N1CCN(CC(=O)[*:3])CC1; Trp(7-aza) = N[C@@H](Cc1c[nH]c2ncccc12)C(=O)O; 1Nal = N[C@@H](Cc1cccc2ccccc12)C(=O)O; Gly(NCH2CH2Ph) = O=C(O)CNCCc1ccccc1; 4Pal = N[C@@H](Cc1ccncc1)C(=O)O

B1: TGFb1_017 (peptide)
peptide: {CH2CO}-F[Trp(7-aza)]VVNV[4Pal]D[KCOpipzaa][Gly(NCH2CH2Ph)]V[1Nal]YHVCG-NH2
modifications: thioether N-16
SMILES: CC(C)[C@@H]1NC(=O)CN(CCc2ccccc2)C(=O)[C@H](CCCCNC(=O)N2CCN(CC(=O)O)CC2)NC(=O)[C@H](CC(=O)O)NC(=O)[C@H](Cc2ccncc2)NC(=O)[C@H](C(C)C)NC(=O)[C@H](CC(N)=O)NC(=O)[C@H](C(C)C)NC(=O)[C@H](C(C)C)NC(=O)[C@H](Cc2c[nH]c3ncccc23)NC(=O)[C@H](Cc2ccccc2)NC(=O)CSC[C@@H](C(=O)NCC(N)=O)NC(=O)[C@H](C(C)C)NC(=O)[C@H](Cc2c[nH]cn2)NC(=O)[C@H](Cc2ccc(O)cc2)NC(=O)[C@H](Cc2cccc3ccccc23)NC1=O
notes: cyclic peptide; C-terminal G is a linker
B2: TGFb1_015 (peptide)
peptide: {CH2CO}-F[1Nal]VVNV[4Pal]D[KCOmeglumine][Gly(NCH2CH2Ph)]V[1Nal]YHVCG-NH2
modifications: thioether N-16
SMILES: CC(C)[C@@H]1NC(=O)CN(CCc2ccccc2)C(=O)[C@H](CCCCNC(=O)N(C)C[C@H](O)[C@@H](O)[C@H](O)[C@H](O)CO)NC(=O)[C@H](CC(=O)O)NC(=O)[C@H](Cc2ccncc2)NC(=O)[C@H](C(C)C)NC(=O)[C@H](CC(N)=O)NC(=O)[C@H](C(C)C)NC(=O)[C@H](C(C)C)NC(=O)[C@H](Cc2cccc3ccccc23)NC(=O)[C@H](Cc2ccccc2)NC(=O)CSC[C@@H](C(=O)NCC(N)=O)NC(=O)[C@H](C(C)C)NC(=O)[C@H](Cc2c[nH]cn2)NC(=O)[C@H](Cc2ccc(O)cc2)NC(=O)[C@H](Cc2cccc3ccccc23)NC1=O
notes: as for B1
B3: TGFb1_011 (peptide)
peptide: {CH2CO}-F[1Nal]VVNV[4Pal]D[KCOpipzaa][Gly(NCH2CH2Ph)]V[1Nal]YHVCG-NH2
modifications: thioether N-16
SMILES: CC(C)[C@@H]1NC(=O)CN(CCc2ccccc2)C(=O)[C@H](CCCCNC(=O)N2CCN(CC(=O)O)CC2)NC(=O)[C@H](CC(=O)O)NC(=O)[C@H](Cc2ccncc2)NC(=O)[C@H](C(C)C)NC(=O)[C@H](CC(N)=O)NC(=O)[C@H](C(C)C)NC(=O)[C@H](C(C)C)NC(=O)[C@H](Cc2cccc3ccccc23)NC(=O)[C@H](Cc2ccccc2)NC(=O)CSC[C@@H](C(=O)NCC(N)=O)NC(=O)[C@H](C(C)C)NC(=O)[C@H](Cc2c[nH]cn2)NC(=O)[C@H](Cc2ccc(O)cc2)NC(=O)[C@H](Cc2cccc3ccccc23)NC1=O
notes: as for B1
B4: TGFb1_016 (peptide)
peptide: {CH2CO}-F[1Nal]VVNV[4Pal]DD[Gly(NCH2CH2Ph)]V[1Nal]YH[KCOmeglumine]CG-NH2
modifications: thioether N-16
SMILES: CC(C)[C@@H]1NC(=O)CN(CCc2ccccc2)C(=O)[C@H](CC(=O)O)NC(=O)[C@H](CC(=O)O)NC(=O)[C@H](Cc2ccncc2)NC(=O)[C@H](C(C)C)NC(=O)[C@H](CC(N)=O)NC(=O)[C@H](C(C)C)NC(=O)[C@H](C(C)C)NC(=O)[C@H](Cc2cccc3ccccc23)NC(=O)[C@H](Cc2ccccc2)NC(=O)CSC[C@@H](C(=O)NCC(N)=O)NC(=O)[C@H](CCCCNC(=O)N(C)C[C@H](O)[C@@H](O)[C@H](O)[C@H](O)CO)NC(=O)[C@H](Cc2c[nH]cn2)NC(=O)[C@H](Cc2ccc(O)cc2)NC(=O)[C@H](Cc2cccc3ccccc23)NC1=O
notes: as for B1
B5: TGFb1_014 (peptide)
peptide: {CH2CO}-F[1Nal]V[KCOmeglumine]NV[4Pal]DD[Gly(NCH2CH2Ph)]V[1Nal]YHVCG-NH2
modifications: thioether N-16
SMILES: CC(C)[C@@H]1NC(=O)CN(CCc2ccccc2)C(=O)[C@H](CC(=O)O)NC(=O)[C@H](CC(=O)O)NC(=O)[C@H](Cc2ccncc2)NC(=O)[C@H](C(C)C)NC(=O)[C@H](CC(N)=O)NC(=O)[C@H](CCCCNC(=O)N(C)C[C@H](O)[C@@H](O)[C@H](O)[C@H](O)CO)NC(=O)[C@H](C(C)C)NC(=O)[C@H](Cc2cccc3ccccc23)NC(=O)[C@H](Cc2ccccc2)NC(=O)CSC[C@@H](C(=O)NCC(N)=O)NC(=O)[C@H](C(C)C)NC(=O)[C@H](Cc2c[nH]cn2)NC(=O)[C@H](Cc2ccc(O)cc2)NC(=O)[C@H](Cc2cccc3ccccc23)NC1=O
notes: as for B1
B6: TGFb1_018 (peptide)
peptide: {CH2CO}-F[Trp(7-aza)]VVNV[4Pal]D[KCOmeglumine][Gly(NCH2CH2Ph)]V[1Nal]YHVCG-NH2
modifications: thioether N-16
SMILES: CC(C)[C@@H]1NC(=O)CN(CCc2ccccc2)C(=O)[C@H](CCCCNC(=O)N(C)C[C@H](O)[C@@H](O)[C@H](O)[C@H](O)CO)NC(=O)[C@H](CC(=O)O)NC(=O)[C@H](Cc2ccncc2)NC(=O)[C@H](C(C)C)NC(=O)[C@H](CC(N)=O)NC(=O)[C@H](C(C)C)NC(=O)[C@H](C(C)C)NC(=O)[C@H](Cc2c[nH]c3ncccc23)NC(=O)[C@H](Cc2ccccc2)NC(=O)CSC[C@@H](C(=O)NCC(N)=O)NC(=O)[C@H](C(C)C)NC(=O)[C@H](Cc2c[nH]cn2)NC(=O)[C@H](Cc2ccc(O)cc2)NC(=O)[C@H](Cc2cccc3ccccc23)NC1=O
notes: as for B1
B7: TGFb1_003 (peptide)
peptide: {CH2CO}-FWVVNVYDD[Gly(NCH2CH2Ph)]V[1Nal]YHVCG
modifications: thioether N-16
notes: as for B1

T1 sequence (P01137 279-390 limits assumed): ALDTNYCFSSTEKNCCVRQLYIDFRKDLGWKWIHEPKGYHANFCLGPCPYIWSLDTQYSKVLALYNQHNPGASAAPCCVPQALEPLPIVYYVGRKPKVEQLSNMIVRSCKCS

One assay addresses T1, recombinant human TGF-β1 (R&D systems) (human, UniProt P01137 279-390). Briefly: cell-based or functional assay.
As for B1, the “SBE reporter % inhibition, peptide 0.075 nM” value amounted to 21.7%; the “SBE reporter % inhibition, peptide 0.75 nM” value was found to be 60.2%; the “SBE reporter % inhibition, peptide 7.5 nM” value was determined as 97.2%; the “SBE reporter % inhibition, peptide 75.0 nM” value came to 100%.

As to B2, the “SBE reporter % inhibition, peptide 0.075 nM” value was determined as 0%; the “SBE reporter % inhibition, peptide 0.75 nM” value was 76.9%; the “SBE reporter % inhibition, peptide 7.5 nM” value was found to be 98.7%; the “SBE reporter % inhibition, peptide 75.0 nM” value was 98.4%.

Consider B3, for which the “SBE reporter % inhibition, peptide 0.075 nM” value was 6.1%; the “SBE reporter % inhibition, peptide 0.75 nM” value turned out to be 76.3%; the “SBE reporter % inhibition, peptide 7.5 nM” value worked out at 97.9%; the “SBE reporter % inhibition, peptide 75.0 nM” value turned out to be 100%.

B4: the “SBE reporter % inhibition, peptide 0.075 nM” value was 6.1%; the “SBE reporter % inhibition, peptide 0.75 nM” value was 61%; the “SBE reporter % inhibition, peptide 7.5 nM” value is 97.6%; the “SBE reporter % inhibition, peptide 75.0 nM” value is 100%.

In the case of B5, the “SBE reporter % inhibition, peptide 0.075 nM” value is 0%; the “SBE reporter % inhibition, peptide 0.75 nM” value was found to be 64.8%; the “SBE reporter % inhibition, peptide 7.5 nM” value was determined as 97.2%; the “SBE reporter % inhibition, peptide 75.0 nM” value was 98.8%.

B6: the “SBE reporter % inhibition, peptide 0.075 nM” value amounted to 22.2%; the “SBE reporter % inhibition, peptide 0.75 nM” value is 61%; the “SBE reporter % inhibition, peptide 7.5 nM” value stood at 97.6%; the “SBE reporter % inhibition, peptide 75.0 nM” value stood at 99.9%.

Consider B7, for which the “SBE reporter % inhibition, peptide 0.075 nM” value is 1.6%; the “SBE reporter % inhibition, peptide 0.75 nM” value amounted to 65.2%; the “SBE reporter % inhibition, peptide 7.5 nM” value is 97.3%; the “SBE reporter % inhibition, peptide 75.0 nM” value was 98.8%.

The target in a further assay is T1, recombinant human TGF-β1 (R&D systems). The assay can be described thus: SPR, TGF-β1 immobilised, single cycle kinetics. The procedure:
Subsequently, 50 μL of 60 mM EDC solution (Global Life Science Technologies Japan Co., Ltd.) and 50 μL of 650 mM NHS solution (Global Life Science Technologies Japan Co., Ltd.) were mixed. Next, the reaction was carried out at a flow rate of 10 μL/min for 420 seconds. Then, 150 μL of 0.2 μM TGF-β solution diluted in 10 mM acetic acid solution (pH 5.0) was prepared and reacted at a flow rate of 10 μL/min for 420 seconds to immobilize TGF-β on the CM3 sensor chip. TGF-β was human-derived TGF-β1 or β2 (recombinant human TGF-β1, 2) and was obtained from R&D systems. After immobilization, capping was performed by reacting with 1.0 M ethanolamine aqueous solution (Global Life Science Technologies Japan Co., Ltd.) at a flow rate of […] for 420 seconds.
A liquid prepared by dissolving each peptide at 10 mM in DMSO solution was diluted with running buffer to prepare a peptide-dissolved solution at a final concentration of 10 μM. Subsequently, 50 nM, 25 nM, 12.5 nM, 5 nM, and 2.5 nM peptide solutions were prepared. Using the above samples, the kinetics of each peptide against TGF-β was obtained by SPR measurement.
The kinetics evaluation model was Single Cycle Kinetics, and curve fitting was performed using Biacore T200 Evaluation Software Version 3.0 (Global Life Science Technologies Japan Co., Ltd.). The binding of various peptides to TGF-β was evaluated by performing least-squares curve fitting on the obtained sensorgram to calculate the KD value.
A general note: In SPR one partner is held on a chip, and binding of the other changes the refractive index at the surface.
Take B1: the equilibrium dissociation constant (Kd) (commonly a measure of binding affinity in units of concentration) was 1.07 nM.

As for B2, the Kd was 0.59 nM.

With B3, the Kd stood at 0.62 nM.

For B4, the Kd amounted to 0.97 nM.

As for B5, the Kd came to 0.66 nM.

Turning to B6, the Kd came out at 1.42 nM.

Turning to B7, the Kd was found to be 0.72 nM.
